Measured values as given in patent publication US20070280950A1 (MEDICAL AND BIOLOGICAL LABORATORIES, published 2007).

How the values were obtained:
human CD61 = biological target: T1, human CD61 (human, UniProt P05106 27-788); assay: flow cytometry on human cultured cells, 1 µg/ml antibody, FITC anti-mouse IgG secondary; Molt-4 and HUVEC also reactive; antigen later identified as CD61
T1 construct: whole, on cells; Endogenous protein on human cells; In the immunoprecipitation it was solubilised from biotinylated THP-1 cell surfaces with NP-40 and came down together with CD51; also called integrin β3-subunit; integrin β3 chain
Method: To identify the antigen of antibody #33, its reactivity to various human cultured cells was examined by flow cytometry. THP-1 activated macrophage-like cells, HPB-ALL, Jurkat, PM-1, Molt-4, KM-3, HL-60, K562, THP-1, U937, 293T, and HUVEC were used as these cells. The THP-1 activated macrophage-like cells were prepared by culturing and differentiating for two days the THP-1 human monocyte-like cell line in RPMI (Sigma) including Streptomycin/Penicillin (Gibco BRL) and 10% FCS (Equitech) into which phorbol ester (PMA) (Sigma) has been added to a final concentration of 5 ng/ml.
Blocking with 1 mg/ml human IgG (Sigma) in FCS was performed for the various human cultured cells (1.0×10⁵ cells) and cells were reacted in a PBS solution comprising 2% FCS (Equitech) antibody #33 at a final concentration of 1 μg/ml at 4° C. for 30 minutes. After washing twice with PBS comprising 2% FCS (Equitech), cells were further reacted with an FITC-labeled anti-mouse IgG secondary antibody (MBL) at 4° C. for 30 minutes. Samples were further washed twice with PBS containing 2% FCS (Equitech) and analyzed with a flow cytometer (ALTRA BC).

CD51 = biological target: T2, CD51 (human, UniProt P06756 31-1048); assay: flow cytometry, PBMCs double-stained with antibody #33 plus secondary antibody and PE-labeled CD51 antibody
T2 construct: whole, on cells; Co-precipitated with CD61 by antibody #33 from THP-1 cells; ruled out as the antigen by double staining of PBMCs; also called CD51 (112 kDa)
Method: A flow cytometry was performed to determine which of CD51 and CD61, listed as candidate antigen molecules for antibody #33, is the antigen for antibody #33. After PBMCs were stained with antibody #33 and a secondary antibody, they were reacted with a PE-labeled CD51 antibody (BC) or a PE-labeled CD61 antibody (SZ21, BC) at 4° C. for 30 minutes and double-stained, after which flow cytometry was performed.

T1 sequence (P05106 27-788): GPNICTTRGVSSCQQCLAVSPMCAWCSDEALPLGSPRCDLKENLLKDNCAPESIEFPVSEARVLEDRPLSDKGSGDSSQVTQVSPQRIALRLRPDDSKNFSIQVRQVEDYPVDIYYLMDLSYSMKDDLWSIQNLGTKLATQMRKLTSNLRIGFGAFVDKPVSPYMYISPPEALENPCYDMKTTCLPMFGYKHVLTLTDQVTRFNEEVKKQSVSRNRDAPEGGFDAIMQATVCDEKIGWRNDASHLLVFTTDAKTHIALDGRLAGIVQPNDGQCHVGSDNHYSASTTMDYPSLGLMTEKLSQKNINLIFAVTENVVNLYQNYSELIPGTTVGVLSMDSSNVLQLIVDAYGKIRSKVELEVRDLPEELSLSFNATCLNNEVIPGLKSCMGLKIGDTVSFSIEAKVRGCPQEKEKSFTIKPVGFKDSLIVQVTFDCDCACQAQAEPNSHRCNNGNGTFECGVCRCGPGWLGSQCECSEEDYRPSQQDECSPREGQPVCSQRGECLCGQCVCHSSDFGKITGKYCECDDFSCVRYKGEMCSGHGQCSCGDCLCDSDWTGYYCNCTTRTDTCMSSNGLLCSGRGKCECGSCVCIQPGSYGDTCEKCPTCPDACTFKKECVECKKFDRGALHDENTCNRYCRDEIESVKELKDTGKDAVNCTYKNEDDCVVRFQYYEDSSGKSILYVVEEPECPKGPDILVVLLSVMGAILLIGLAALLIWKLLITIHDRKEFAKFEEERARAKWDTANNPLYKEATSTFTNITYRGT
T2 sequence (P06756 31-1048): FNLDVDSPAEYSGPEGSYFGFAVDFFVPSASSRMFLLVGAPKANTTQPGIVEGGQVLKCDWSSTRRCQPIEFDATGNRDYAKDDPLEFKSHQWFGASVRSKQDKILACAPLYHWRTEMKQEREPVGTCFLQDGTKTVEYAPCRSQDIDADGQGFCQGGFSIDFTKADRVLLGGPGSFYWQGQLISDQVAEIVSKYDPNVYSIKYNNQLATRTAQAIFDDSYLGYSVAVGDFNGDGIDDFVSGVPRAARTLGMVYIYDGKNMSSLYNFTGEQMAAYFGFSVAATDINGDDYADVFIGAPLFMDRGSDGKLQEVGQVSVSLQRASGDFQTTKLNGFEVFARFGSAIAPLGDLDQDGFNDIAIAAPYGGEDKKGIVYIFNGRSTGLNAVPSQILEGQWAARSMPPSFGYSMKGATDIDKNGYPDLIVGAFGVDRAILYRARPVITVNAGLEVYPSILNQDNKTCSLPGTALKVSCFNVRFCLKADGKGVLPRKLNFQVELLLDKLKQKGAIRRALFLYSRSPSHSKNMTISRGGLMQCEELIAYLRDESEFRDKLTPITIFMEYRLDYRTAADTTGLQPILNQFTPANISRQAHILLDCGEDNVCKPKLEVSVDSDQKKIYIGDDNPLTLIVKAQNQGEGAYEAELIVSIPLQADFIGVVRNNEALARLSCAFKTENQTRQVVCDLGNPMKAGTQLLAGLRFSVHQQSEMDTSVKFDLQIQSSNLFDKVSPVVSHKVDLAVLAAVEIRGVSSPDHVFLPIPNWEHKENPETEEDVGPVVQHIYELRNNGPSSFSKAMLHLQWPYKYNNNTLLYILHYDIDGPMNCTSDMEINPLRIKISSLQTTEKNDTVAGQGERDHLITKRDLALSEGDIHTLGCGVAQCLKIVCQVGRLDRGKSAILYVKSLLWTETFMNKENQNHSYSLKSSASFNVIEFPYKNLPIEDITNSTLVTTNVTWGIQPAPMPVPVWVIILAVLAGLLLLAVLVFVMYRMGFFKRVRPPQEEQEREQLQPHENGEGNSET

B1: antibody #33 (antibody, IgG2a, V domains shown)
VH: EVQLLQSGPELVKPGASMKISCKASGYSFTGYTMNWVKQSHGKNLEWIGLINPYSGVTTYNQRFKGKATLTVDKSSSTAYMELLSLTSEDSAVYYCATRGALGQAYYFDYWGQGTTLTVSS
VL: QIVLTQSPVIMSASPGERVTLTCSASSSVNYMHWYQQKSGTSPKRWIYDTSKLASGVPPRFSGSGFGTSYSLTITNMEAEDAATYYCQQWSSKPPTFGFGTKLELQR
notes: also called monoclonal antibody #33; mouse anti-human CD61 antibody
binding result (human CD61): binds
binding result (CD51): no binding
